One substance from PMC7481404 can be followed below.

The target of this experiment is PARK2 (UniProt O60260). Briefly: co-IP of Flag-PARK2 and Myc-BCL-2. To be noted: reference: wild type Myc-BCL-2; sites S70.

Take BCL-2 (from UniProt P10415) S70A: the “binding against the reference” value was “lost”.
